{"source": "patent US20070141066A1", "about": "“Method for Diagnosing, Prognosing and Treating Glioma” (Genentech, Inc., priority 2005, published 2007)", "system": "neural stem cell lines derived from fetal human brain", "assay": "Expression signature (35 signature genes) of neural stem cell lines after BDNF treatment and withdrawal", "type": "cell-based", "details": "two neural stem cell lines", "description": "Signal intensity values from Microarray Analysis Suite version were utilized with a scaling factor of 500 for all analysis of microarray data. K-means clustering and agglomerative clustering were performed with the use of Spotfire Decision Site software version 7.3 using Pearson correlation as the similarity measure. For each gene, data was normalized into Z scores prior to clustering. The 35 signature genes used for tumor classification represent the most robust markers for each of three tumor subsets in the MDA survival sample set. Markers of each subset are identified as follows: Each of the 76 samples is assigned to one of three groups based on k-means clustering of expression of the 108 genes most strongly correlated with survival. Using a p value cutoff of 1×10^−4, t tests were utilized to identify all genes whose expression differed between samples in each subclass compared to tumors of other subclasses (see Table A, GDM). For each comparison, we then rank-ordered the 500 probe sets with the smallest p values, by fold change. […] The final 35 signature genes contain 15 PN, 15 Mes, and 5 Prolif markers. […] For statistical comparisons of data presented in FIG. 4 F-I and FIG. 7, log-transformed data was analyzed via t tests corrected for multiple group comparisons. […]", "data": [{"molecule": "BDNF: the neurotrophic factor BDNF (protein, UniProt P23560 19-247, looked up) Neurotrophic factor BDNF …: APMKEANIRGQGGLAYPGVRTHGTLESVNGPKAGSRGLTSLADTFEHVIEELLDEDQKVRPNEENNKDADLYTSRVMLSSQVPLEPPLLFLLEEYKNYLDAANMSMRVRRHSDPARRGELSVCDSISEWVTAADKKTAVDMSGGTVTVLEKVPVSKGQLKQYFYETKCNPMGYTKEGCRGIDKRHWNSQCRTTQSYVRALTMDSKKRIGWRFIRIDTSCVCTLTIKRGR", "values": [{"measurement": "shift of expression signature subclass", "value": "shifted signature subclass from the PN to the Mes class"}]}]}
